Paper doi:10.1101/2025.04.09.647959
Like-named read-outs stand apart in the source and are kept apart here.

B1: hCD40L-1 (LNA-T, 2'F-C) (XNA)
DNA: GGGAGGAGGAAGCGGAAAAAGCAGGTGTGAAAAGGACGTCAAACGACGTGACACACAGACGACACGCCCGA
modifications: all T are LNA-T; all C are 2'F-C; A and G ribo
B2: hCD40L-4 (LNA-T, 2'F-C) (XNA)
DNA: GGGAGGAGGAAGCGGACGATGAACAAGTTGAAAAGGAATTTAAACGAATTAACAACAGACGACACGCCCGA
modifications: all T are LNA-T; all C are 2'F-C; A and G ribo

How the values were obtained:
[1] = biological target: T1, human CD40 ligand (hCD40L) (Homo sapiens, UniProt P29965 113-261); assay: BLI
T1 sequence (P29965 113-261): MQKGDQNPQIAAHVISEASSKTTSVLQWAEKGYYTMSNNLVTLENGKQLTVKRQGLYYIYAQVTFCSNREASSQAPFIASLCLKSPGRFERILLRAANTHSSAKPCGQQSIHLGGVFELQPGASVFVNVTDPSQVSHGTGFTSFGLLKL

[2] = biological target: T1, human CD40 ligand (hCD40L); assay: BLI; remark: listed apart in the source

Binder | binding result [1] | binding result [2]
B1 | binds | 
B2 |  | binds
